B1: ChlI C244S Alexa Fluor 488 (natural protein, Synechocystis, UniProt P51634 1-357, looked up)
chain: MTATLAAPSKTRRVVFPFTAIVGQDEMKLALLLNVIDPKIGGVMIMGDRGTGKSTTIRALADLLPEIEVVANDPFNSSPSDPEMMSEEVRIRVDSQEPLSIVKKKVTMVDLPLGATEDRVCGTIDIEKALSEGVKAFEPGLLAKANRGILYVDEVNLLDDHLVDVLLDSAAGGWNTVEREGISIRHPARFVLVGSGNPEEGELRPQLLDRFGMHAEIRTVREPELRVKIVEQRTEFDQNPHPFSDQYQTEQEALQAKIVNAQNLLPQVTIDYDYRVKVSEVCAELDVDGLRGDIVTNRAAKALAAFEGRTEVTVDDISRVIVLCLRHRLRKDPLESIDSGSKVEKVFKRVFGVVDEA
modifications: Alexa Fluor 488 C5 maleimide label (labelled residue not stated)

Columns and labels:
[1] = molecular target: ChlI, C-terminally attached to the surface via His6 tag (Synechocystis) (UniProt P51634); assay: single molecule force spectroscopy
[2] = molecular target: ChlD wild-type (Synechocystis, UniProt P72772 1-676); assay: MST
ChlD wild-type, sequence (P72772 whole entry): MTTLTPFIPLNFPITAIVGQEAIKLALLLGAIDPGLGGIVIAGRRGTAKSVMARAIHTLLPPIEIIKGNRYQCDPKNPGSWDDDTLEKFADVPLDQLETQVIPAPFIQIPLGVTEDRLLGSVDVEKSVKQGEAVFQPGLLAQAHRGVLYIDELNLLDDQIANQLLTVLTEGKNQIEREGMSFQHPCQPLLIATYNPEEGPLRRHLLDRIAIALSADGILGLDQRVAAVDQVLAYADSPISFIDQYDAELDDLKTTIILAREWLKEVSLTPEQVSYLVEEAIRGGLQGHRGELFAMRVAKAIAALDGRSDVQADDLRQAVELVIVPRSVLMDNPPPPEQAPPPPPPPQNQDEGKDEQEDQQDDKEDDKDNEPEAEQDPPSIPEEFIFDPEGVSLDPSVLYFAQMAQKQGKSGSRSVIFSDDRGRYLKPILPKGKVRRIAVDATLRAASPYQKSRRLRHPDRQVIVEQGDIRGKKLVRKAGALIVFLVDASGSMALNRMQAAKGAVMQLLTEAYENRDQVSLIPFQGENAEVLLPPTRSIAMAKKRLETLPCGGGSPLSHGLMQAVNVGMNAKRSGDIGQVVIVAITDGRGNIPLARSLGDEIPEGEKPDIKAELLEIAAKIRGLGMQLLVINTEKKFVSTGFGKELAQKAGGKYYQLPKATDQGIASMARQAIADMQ

[3] = molecular target: ChlD R289A (Synechocystis, UniProt P72772 1-676, R289A); assay: MST
ChlD R289A, sequence (P72772 whole entry R289A): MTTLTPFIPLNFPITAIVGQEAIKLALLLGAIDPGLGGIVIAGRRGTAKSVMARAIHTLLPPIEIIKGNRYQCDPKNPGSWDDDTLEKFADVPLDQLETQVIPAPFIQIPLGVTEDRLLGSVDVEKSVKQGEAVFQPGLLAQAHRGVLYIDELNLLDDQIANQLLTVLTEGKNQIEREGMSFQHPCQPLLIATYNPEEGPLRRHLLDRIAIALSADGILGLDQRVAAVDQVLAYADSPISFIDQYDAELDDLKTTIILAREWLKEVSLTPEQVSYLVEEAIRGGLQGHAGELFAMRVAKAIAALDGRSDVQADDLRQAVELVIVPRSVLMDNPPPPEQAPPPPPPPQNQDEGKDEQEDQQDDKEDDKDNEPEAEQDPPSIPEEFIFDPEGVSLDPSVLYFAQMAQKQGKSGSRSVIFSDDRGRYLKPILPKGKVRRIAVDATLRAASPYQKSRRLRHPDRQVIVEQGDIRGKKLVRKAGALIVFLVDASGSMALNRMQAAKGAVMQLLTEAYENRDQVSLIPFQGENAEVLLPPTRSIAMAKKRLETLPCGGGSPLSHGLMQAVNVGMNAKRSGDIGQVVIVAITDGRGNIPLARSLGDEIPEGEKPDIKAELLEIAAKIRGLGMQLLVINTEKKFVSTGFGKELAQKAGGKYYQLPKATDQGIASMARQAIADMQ

[4] = molecular target: ChlD R208A (Synechocystis, UniProt P72772 1-676, R208A); assay: MST
ChlD R208A, sequence (P72772 whole entry R208A): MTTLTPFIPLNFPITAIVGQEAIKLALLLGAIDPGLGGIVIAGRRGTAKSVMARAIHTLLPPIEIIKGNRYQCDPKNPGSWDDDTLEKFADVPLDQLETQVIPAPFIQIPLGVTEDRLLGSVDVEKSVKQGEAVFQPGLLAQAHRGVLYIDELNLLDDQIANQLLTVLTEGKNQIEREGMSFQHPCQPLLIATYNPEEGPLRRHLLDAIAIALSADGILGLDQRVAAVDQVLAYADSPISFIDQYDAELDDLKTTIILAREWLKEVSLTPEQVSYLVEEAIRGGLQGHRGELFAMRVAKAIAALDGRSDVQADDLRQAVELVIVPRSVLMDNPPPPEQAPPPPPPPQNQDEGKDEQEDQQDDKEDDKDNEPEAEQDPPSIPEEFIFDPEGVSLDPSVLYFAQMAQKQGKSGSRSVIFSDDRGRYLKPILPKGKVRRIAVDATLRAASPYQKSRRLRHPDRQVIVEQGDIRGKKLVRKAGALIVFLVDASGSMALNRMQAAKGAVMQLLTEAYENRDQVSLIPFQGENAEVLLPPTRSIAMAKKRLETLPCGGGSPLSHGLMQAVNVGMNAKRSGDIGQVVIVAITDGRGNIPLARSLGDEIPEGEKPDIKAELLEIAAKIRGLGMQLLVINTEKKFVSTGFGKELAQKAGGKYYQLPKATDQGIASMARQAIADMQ

Row | Molecule | interaction probability [1] | modal interaction force [1] | rupture force [1] | Kd [2] | Kd [3] | Kd [4]
1 | ChlD tagged at the C-terminus with a His6 sequence (from UniProt P72772 1-676) (natural protein) | 30.5% | 108 pN | 109 pN |  |  | 
2 | B1 |  |  |  | 7.6 ± 0.8 nM | 2540 ± 219 nM | 328 ± 67.7 nM
